# Test results reported in patent US20160367664A1 (AGENCY FOR SCIENCE TECHNOLOGY AND RESEARCH, published 2016).
# T1: recombinant human interleukin 2 receptor β (IL-2Rβ; CD122) (human, UniProt P14784 27-240)
# T1 construct: Recombinant chain immobilised on the SPR chip and used as antigen in the ELISAs; also called human IL-2Rβ
# T1 sequence (looked up): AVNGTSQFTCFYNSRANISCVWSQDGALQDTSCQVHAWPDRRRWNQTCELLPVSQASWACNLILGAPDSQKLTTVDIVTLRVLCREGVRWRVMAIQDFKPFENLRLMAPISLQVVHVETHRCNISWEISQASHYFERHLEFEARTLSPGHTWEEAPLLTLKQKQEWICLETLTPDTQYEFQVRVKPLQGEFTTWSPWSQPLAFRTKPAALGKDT
# T2: recombinant human common γ chain (γc; CD132) (human, UniProt P31785 23-262)
# T2 construct: Recombinant chain immobilised on the SPR chip and used as antigen in the ELISAs; also called IL-2Rγc; IL-2Rγ
# T2 sequence (looked up): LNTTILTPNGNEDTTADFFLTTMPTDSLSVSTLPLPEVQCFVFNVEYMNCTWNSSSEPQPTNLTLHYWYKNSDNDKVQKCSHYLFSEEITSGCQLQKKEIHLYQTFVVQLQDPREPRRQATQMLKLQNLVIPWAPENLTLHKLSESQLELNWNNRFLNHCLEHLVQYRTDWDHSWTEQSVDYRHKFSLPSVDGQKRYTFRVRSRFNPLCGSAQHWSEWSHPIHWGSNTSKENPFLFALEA
# B1: bispecific anti-IL-2Rβ/γc antibody P2D12/P1A3 (bispecific antibody)
# chain 1: HVQLVETGGGLVQPGGSLRLSCAASGFTFSSYAMSWVRQAPGKGLEWVSAISGSGGSTYYADSVKGRFTISRDNSKNTLYLQMNSLRAEDTAVYYCARDLGDYWGQGTLVTVSSGGGGSGGGGSGGGGSDIQLTQSPSSLSASVGDRVTITCQASQDIGNYLNWYQLKPGKAPKLLIYDASNLETGVPSRFSGSGSGTDFTFTISSLQPEDIATYYCLQLYDYPLTFGGGTKVEIK
# chain 2: not shown
# How the values were obtained:
# [1] = target: T1, recombinant human interleukin 2 …; experiment: SPR, recombinant receptor chain immobilised on the chip, antibody flowed over
# [2] = target: T2, recombinant human common γ chain (γc; …); experiment: as above
binder,measurement,setting,value
B1,Kd,[1],181 nM
same,Kd,[2],78.7 nM
